PMC9287160

Biological target: human integrin αMβ2 headpiece fragment, P11215;P05107
Experiment: BLI competition assay
Conditions: chain shown with the change; 20 nM αMβ2 HP preincubated with 10-fold molar excess of nanobody variant; immobilized biotinylated avi-tagged WT hCD11bNb1; signal is HP binding to the sensor …; parent: est. 0.31; read off a plot

Binder	response [nm]
nanobody hCD11bNb1 (His-tagged) F54A (protein) QVQLVETGGGLVQAGGSLRLSCAASGNINSFNAMGWFRQAPGKQRELVAAITAGGRTNYADSVKGRFTISRDNTKGSVYLQMNSLKPEDTAVYYCAASENNLLTGVWHYWGRGTQVTVSS	1.2
nanobody hCD11bNb1 (His-tagged) F32A (protein) QVQLVETGGGLVQAGGSLRLSCAASGNINSANAMGWFRQAPGKQRELVAAITFGGRTNYADSVKGRFTISRDNTKGSVYLQMNSLKPEDTAVYYCAASENNLLTGVWHYWGRGTQVTVSS	1.1
nanobody hCD11bNb1 (His-tagged) I29A (protein) QVQLVETGGGLVQAGGSLRLSCAASGNANSFNAMGWFRQAPGKQRELVAAITFGGRTNYADSVKGRFTISRDNTKGSVYLQMNSLKPEDTAVYYCAASENNLLTGVWHYWGRGTQVTVSS	0.45

Second part, the binder after the results:

response [nm]	Binder
1.2	nanobody hCD11bNb1 (His-tagged) N101A (protein) QVQLVETGGGLVQAGGSLRLSCAASGNINSFNAMGWFRQAPGKQRELVAAITFGGRTNYADSVKGRFTISRDNTKGSVYLQMNSLKPEDTAVYYCAASEANLLTGVWHYWGRGTQVTVSS
0.98	nanobody hCD11bNb1 (His-tagged) N30A (protein) QVQLVETGGGLVQAGGSLRLSCAASGNIASFNAMGWFRQAPGKQRELVAAITFGGRTNYADSVKGRFTISRDNTKGSVYLQMNSLKPEDTAVYYCAASENNLLTGVWHYWGRGTQVTVSS
